According to US20240425607A1 (COMPUGEN, published 2024):

Experiments:
[1] = molecular target: T1, mouse IL-18BP (construct not stated) (mouse, UniProt Q9Z0M9 29-193, limits assumed); assay: KinExA, solution equilibrium
T1 construct: also called mIL18-BP
T1 sequence (looked up): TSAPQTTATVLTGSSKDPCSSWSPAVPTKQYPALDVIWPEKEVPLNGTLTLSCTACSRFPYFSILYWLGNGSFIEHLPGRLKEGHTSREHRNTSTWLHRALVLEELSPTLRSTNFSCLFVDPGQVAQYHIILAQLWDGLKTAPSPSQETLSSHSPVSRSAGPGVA

[2] = molecular target: T2, cynomolgus monkey IL-18BP (construct not stated) (cynomolgus monkey); assay: KinExA (figure legend; the text prints 208 fM)
T2 construct: also called cyno IL18BP; cyno IL-18BP

[3] = molecular target: T2, cynomolgus monkey IL-18BP (construct …); assay: KinExA, solution equilibrium
[4] = molecular target: T3, human IL-18BP (recombinant, construct not stated) (human, UniProt O95998 31-194); assay: KinExA, solution equilibrium
T3 construct: also called hIL-18BP; human monomeric IL18BP
T3 sequence: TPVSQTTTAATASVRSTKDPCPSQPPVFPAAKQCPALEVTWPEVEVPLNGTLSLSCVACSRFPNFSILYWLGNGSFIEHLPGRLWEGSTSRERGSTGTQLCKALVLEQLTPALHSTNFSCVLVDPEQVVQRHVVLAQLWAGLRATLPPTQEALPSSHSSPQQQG

[5] = molecular target: T4, mouse IL18-BP-Fc (mouse, UniProt Q9Z0M9 29-193, limits assumed); assay: Biacore T100; mouse IL18BP-Fc captured on anti-human Fc, Fab 300-2.21 nM in solution
T4 construct: R&D cat; 122-BP is named for the AbD35328 SPR; also called mouse IL18-BP-Fc (cat. 122-BP, R&D); mouse IL18-BP Fc fusion protein
T4 sequence (looked up): T1 sequence (looked up)

B1: mouse IL-18 (ligand, UniProt P70380 36-192, looked up)
chain: NFGRLHCTTAVIRNINDQVLFVDKRQPVFEDMTDIDQSASEPQTRLIIYMYKDSEVRGLAVTLSVKDSKMSTLSCKNKIISFEEMDPPENIDDIQSDLIFFQKRVPGHNKMEFESSLYEGHFLACQKEDDAFKLILKKKDENGDKSVMFTLTNLHQS
notes: also called mIL-18; mouse IL-18 biotinylated (Sino Biological)
Kd [1]: ~3.7 pM

B2: ADI-71739 (antibody, V domains shown)
VH: QLQLQESGPGLVKPSETLSLTCTVSGGSISSPDYPWGWIRQPPGKGLEWIGSIYYQGATYYNPSLKSRVTISVDTSKNQFSLKLSSVTAADTAVYYCARGPYRQLFDYWGQGTLVTVSS
VL: DIQMTQSPSSVSASVGDRVTITCRASQGISSWLAWYQQKPGKAPKLLIYAASSLQSGVPSRFSGSGSGTDFTLTISSLQPEDFATYYCQQGSVFPYTFGGGTKVEIK
Kd [2]: 0.209 pM
Kd [3]: ~0.208 pM
Kd [4]: ~0.291 pM

B3: ADI-71739 Fab fragment (Fab, V domains shown)
VH: B2 VH
VL: B2 VL
notes: Used for the Biacore measurement on mouse IL18BP-Fc; also called anti-IL18BP Fab
Kd [5]: ~4 nM
